B1: g35 (ssRNA)
RNA: GGGACGCUCACGUACGCUAAGAUUUGUGUGAUACCCGACACUCUAACGGGGUAGCAGGGCUCAGUGCCUGGACGUGCAGU
B2: g27 (ssRNA)
RNA: GGGACGCUCACGUACGCUAACCUAUGCAGACCGACAUCCGGGUAUACGGGAUGAUGCGACUCAGUGCCUGGACGUGCAGU
B3: g38 (ssRNA)
RNA: GGGACGCUCACGUACGCUAACCAGGAGCAUUAGACCGGGGAAAGAAGGAGUACCGUCUGGUCAGUGCCUGGACGUGCAGU
B4: g32 (ssRNA)
RNA: GGGACGCUCACGUACGCUAAACAAGACCGGGAUGGGGGUUGGUCACACACAAAGACUGAAUCAGUGCCUGGACGUGCAGU
B5: g19 (ssRNA)
RNA: GGGACGCUCACGUACGCUAAGUAGCCGUGAUUGGGUUGGCUGCCCACAAUUAUCCAGGACUCAGUGCCUGGACGUGCAGU
B6: g25 (ssRNA)
RNA: GGGACGCUCACGUACGCUAAUAGCAACAGUUCCCAGAGGUGAUCAGGCAGCCUUAAGACAUCAGUGCCUGGACGUGCAGU
B7: g22 (ssRNA)
RNA: GGGACGCUCACGUACGCUAAGCGUGUUUCUUCAUUUCGACGCUGGCCAACGGAAAUGCAAUCAGUGCCUGGACGUGCAGU
B8: g23 (ssRNA)
RNA: GGGACGCUCACGUACGCUAAAUGGGAGUGCGCCUCGGCUCUAACGGAGGUAUGCACGUCAUCAGUGCCUGGACGUGCAGU
B9: g14 (ssRNA)
RNA: GGGACGCUCACGUACGCUAAUCAUCGGGACAUCGGAUGGAACGGGUGUCAAGAAGCGUGUUCAGUGCCUGGACGUGCAGU
B10: g36 (ssRNA)
RNA: GGGACGCUCACGUACGCUAACUUGAUUGGUCGCAACCGGACAAGGACGGGUUGAUGCAGUUCAGUGCCUGGACGUGCAGU
B11: g21 (ssRNA)
RNA: GGGACGCUCACGUACGCUAACCUUGGUGUCAUCCGACCAAAUUAGAACGGGAUGAGGAAGUCAGUGCCUGGACGUGCAGU
B12: g34 (ssRNA)
RNA: GGGACGCUCACGUACGCUAAUUUGGUGAAUUCCGACCAUUUUGCAAACGGGAUACGGGACUCAGUGCCUGGACGUGCAGU
B13: g28 (ssRNA)
RNA: GGGACGCUCACGUACGCUAACCUGGGGGUUCCGCAGGAAUCGGGAACUAGAUUGGUGGUCUCAGUGCCUGGACGUGCAGU
B14: g37 (ssRNA)
RNA: GGGACGCUCACGUACGCUAAGGUUUGCUCCGACCGACUAAAGGGAGCCUCUGUCACGAGUUCAGUGCCUGGACGUGCAGU
B15: g12 (ssRNA)
RNA: GGGACGCUCACGUACGCUAACGCGGCCAUCCGGCGUUUGGAACGGGAUGUACACCUGACAUCAGUGCCUGGACGUGCAGU
B16: g26 (ssRNA)
RNA: GGGACGCUCACGUACGCUAAGCUCCACCAGGUGUAGCUAGCCUGUAGACAUCAGUAGCAUCAGUGCCUGGACGUGCAGU
B17: g30 (ssRNA)
RNA: GGGACGCUCACGUACGCUAAAAAUUGCCGGGAUCUGGUGUGGCGACCAUGCGGCGUGCAUUCAGUGCCUGGACGUGCAGU
B18: g20 (ssRNA)
RNA: GGGACGCUCACGUACGCUAAACGUUGUGGCGAACUUCGGCCCGAACGGGAGUAACUGCAUCAGUGCCUGGACGUGCAGU
B19: g17 (ssRNA)
RNA: GGGACGCUCACGUACGCUAAAGUGAUGGCCGGCUGGAGAAACGGGCCACUCGAUCCAGGUCAGUGCCUGGACGUGCAGU
B20: g29 (ssRNA)
RNA: GGGACGCUCACGUACGCUAAACGAGCCGUGAUUGGGUUGGCAACCCUGCUUAUGUGAGGAUCAGUGCCUGGACGUGCAGU
B21: g24 (ssRNA)
RNA: GGGACGCUCACGUACGCUAAGAGUUGUCGCACAGCGACUCGAAAAUAAUCUGUCCGACACUCAGUGCCUGGACGUGCAGU
B22: g31 (ssRNA)
RNA: GGGACGCUCACGUACGCUAAAGAGUCUAUGCCGUGAGUGAGGGUGGCGCCUCGACUGCCAUCAGUGCCUGGACGUGCAGU
B23: g33 (ssRNA)
RNA: GGGACGCUCACGUACGCUAAACUUUUGGCGAUCUCCGGCCGGAUACGGGAGAACGAGGUAUCAGUGCCUGGACGUGCAGU
B24: g16 (ssRNA)
RNA: GGGACGCUCACGUACGCUAACCGCUACCGGGUGCAACGGGUAGACUGUAACCAGGUGAUAUCAGUGCCUGGACGUGCAGU
B25: g18 (ssRNA)
RNA: GGGACGCUCACGUACGCUAAGGCACCCUAUAGGAUUCAGCCCCUAACCCGGUGUUGUGAAUCAGUGCCUGGACGUGCAGU
B26: g13 (ssRNA)
RNA: GGGACGCUCACGUACGCUAAUCACUCGGACAGCCGGAGCGAAACGGGCUGUGUAAGACUGUCAGUGCCUGGACGUGCAGU
B27: g15 (ssRNA)
RNA: GGGACGCUCACGUACGCUAAGACGCGGGCCACCGGCUAGCGACGGGUGGUAAAGGGCUUGUCAGUGCCUGGACGUGCAGU
B28: g1-d5del (ssRNA)
RNA: GGGACGCUCACGUACGCUAAACACACUGAGAGUUUGACCAGCUAUUAAAUGGGUCGUGACUCAGUGCCUGGACGU
B29: g1-d10del (ssRNA)
RNA: GGGACGCUCACGUACGCUAAACACACUGAGAGUUUGACCAGCUAUUAAAUGGGUCGUGACUCAGUGCCUG
B30: g1-u20del (ssRNA)
RNA: GGGCACUGAGAGUUUGACCAGCUAUUAAAUGGGUCGUGACUCAGUGCCUGGACGUG
B31: g1-u10del (ssRNA)
RNA: GGGACGCUAAACACACUGAGAGUUUGACCAGCUAUUAAAUGGGUCGUGACUCAGUGCCUGGACGUGC
B32: g1-u5del (ssRNA)
RNA: GGGCACGUACGCUAAACACACUGAGAGUUUGACCAGCUAUUAAAUGGGUCGUGACUCAGUGCCUGGACGUGCAG

target: T1, rec-cMet (Recombinant Human HGF R/c-MET/Fc Chimera) (Homo sapiens, UniProt P08581;P08581 SEQ:1-283,SEQ:1-625); assay: SPR; rec-cMet 100 nM; conditions: tags: C-terminal HIEGRMD linker, human IgG Fc (100-330), 6xHis; R&D Systems; chain copies: 2 (inferred, Fc chimera)
T1 sequence (P08581 25-307, stated change not applied, chain 1 of 2): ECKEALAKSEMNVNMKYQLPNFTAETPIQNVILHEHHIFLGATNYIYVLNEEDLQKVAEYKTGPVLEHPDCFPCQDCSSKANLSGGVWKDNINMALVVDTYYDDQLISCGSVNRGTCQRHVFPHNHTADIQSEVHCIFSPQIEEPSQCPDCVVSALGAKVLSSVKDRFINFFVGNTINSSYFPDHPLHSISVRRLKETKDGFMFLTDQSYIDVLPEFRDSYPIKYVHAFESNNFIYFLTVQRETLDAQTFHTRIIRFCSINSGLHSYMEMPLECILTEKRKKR
T1 sequence (P08581 308-932, stated change not applied, chain 2 of 2): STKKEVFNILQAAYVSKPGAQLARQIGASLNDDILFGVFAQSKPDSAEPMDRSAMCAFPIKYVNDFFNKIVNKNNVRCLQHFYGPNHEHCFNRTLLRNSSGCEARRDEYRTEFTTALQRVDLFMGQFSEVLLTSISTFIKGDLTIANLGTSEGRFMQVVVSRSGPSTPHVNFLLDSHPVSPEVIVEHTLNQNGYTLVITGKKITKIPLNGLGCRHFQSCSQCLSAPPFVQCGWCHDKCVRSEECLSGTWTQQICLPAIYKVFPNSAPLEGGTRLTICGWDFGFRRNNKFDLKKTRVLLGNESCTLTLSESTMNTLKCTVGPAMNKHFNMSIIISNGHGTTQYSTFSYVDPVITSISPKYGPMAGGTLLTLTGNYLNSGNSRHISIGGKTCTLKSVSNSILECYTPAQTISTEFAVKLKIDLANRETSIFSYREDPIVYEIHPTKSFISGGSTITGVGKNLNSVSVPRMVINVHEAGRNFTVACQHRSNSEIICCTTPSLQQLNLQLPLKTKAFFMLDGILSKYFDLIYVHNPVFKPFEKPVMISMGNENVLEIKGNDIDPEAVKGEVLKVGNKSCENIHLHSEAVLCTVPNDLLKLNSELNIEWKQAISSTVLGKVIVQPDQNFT
Protocol: Using these truncated RNA aptamers, the binding ability thereof to the rec-cMet was examined. The binding ability was analyzed using BIACORE (registered trademark) X (GE Healthcare) in accordance with its instructions for use, with the concentration of the rec-cMet being set to 175 nmol/L. Also, the binding ability of each of the RNA aptamers g1 and g1-trA was examined in the same manner. As a comparative example, the 40N was used, and the binding ability thereof was examined in the same manner.
The binding ability of each of the RNA aptamers to the rec-cMet was examined in the same manner as in Example 5, except that the above RNA aptamers were used. The concentration of the rec-cMet was set to 100 nmol/L. With the time point at which the introduction of the rec-cMet to the chip was started being 0 seconds, introduction of a buffer was started 60 seconds later.

Binding result, binds:
B1, B2, B3, B4, B5, B6, B7, B8, B9, B10, B11, B12, B13, B14, B15, B16, B17, B18, B19, B20, B21, B22, B23, B24, B25, B26, B27

target: T1, rec-cMet (Recombinant Human HGF …); assay: ELONA; signal higher than g1; conditions: tags: C-terminal HIEGRMD linker, human IgG Fc (100-330), 6xHis; R&D Systems; chain copies: 2 (inferred, Fc chimera)
Protocol: An anti-IgG antibody (trade name: “Human IgG-Fc Antibody”, Bethyl Laboratories) was adsorbed on a 96-well plate (Iwaki, AGC Techno Glass Co., Ltd., Japan), and then was subjected to blocking using 1% bovine serum albumin. Subsequently, 50 μL of the 1 μg/mL rec-cMet was added to the plate. Further, Tris (20 mmol/L), sodium chloride (100 mmol/L), magnesium acetate (0.1 mmol/L) and Triton (registered trademark)-X100 (0.2%) were added to the plate so that their final concentrations would be as shown in the parentheses. The plate was incubated at room temperature for 3 hours, thus causing the rec-cMet to bind to the plate. After the incubation, the plate was washed three times with a washing solution. The composition of the washing solution was as follows: 20 mmol/L Tris, 100 mmol/L sodium chloride, 0.1 mmol/L magnesium acetate, and 0.2% Triton (registered trademark)-X100. As a control, incubation and washing were carried out in the same manner, except that 50 μL of the washing solution was added instead of 50 μL of the rec-cMet.
Next, a 20-mer polyadenine (poly A) was added to the 3′ end of each of the RNA aptamers. Thus, poly-A-added RNA aptamers were prepared. Each of the poly-A-added RNA aptamers was denatured, and thereafter, the denatured poly-A-added RNA aptamer was mixed with a 20-mer biotinylated polythymine with its 5′ end being biotinylated (740 nmol/L), tRNA (100 μg/mL), and an RNase inhibitor (0.16 units/mL). As a result, complementary binding occurred between the poly A in the poly-A-added RNA aptamer and the polythymine (poly T) in the biotinylated polythymine, whereby a biotin-labeled RNA aptamer was produced. The biotin-labeled RNA aptamer was added to the plate, and the plate was incubated at 4° C. for 30 minutes. Subsequently, the plate was washed, and 0.1 μg/mL HRP-streptavidin (Thermo Fisher Scientific Inc., USA) was added thereto. The plate was then washed, after which a 1-Step Ultra TMB substrate (Thermo Fisher Scientific Inc., USA) was added to the plate to cause color development, and the absorbance at 450 nm was measured.
The binding ability of each of the RNA aptamers to the rec-cMet was examined in the same manner as in Example 1, except that the truncated RNA aptamers were used. Also, the binding ability of the RNA aptamer g1 was examined in the same manner.

Binding result, binds:
B28, B29, B30, B31, B32

From patent US20130123350, “NUCLEIC ACID MOLECULE CAPABLE OF BINDING TO c-MET AND USE THEREOF” (KANAGAWA PREFECTURAL HOSPITAL ORGANIZATION, published 2013)
